In the nanobody polyreactivity screen of Harvey et al. (2022):

Assay: yeast display, Sf9 membrane polyspecificity reagent, FACS + sequencing; frameworks hold sequencing errors
Method in brief: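 A nanobody's polyreactivity label depends on the gate it was sorted from. Yeast display cells were stained with 10% biotinylated, detergent-solubilized Sf9 membrane reagent for 1 hour at 4 °C, enriched on streptavidin microbeads and sorted by FACS. The low and high (top ~1%) gates were set on anti-HA fluorescence for expression and streptavidin fluorescence for reagent binding.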

| Sequence | polyreactivity (PSR sort gate) |
| --- | --- |
| QVQLVESGGGLVQAGGSLRLSCAASGFIFPDDAMGWYSQAPGKERELVASINRSGGSTNYADSVKGRFTISRDHAKNTDYLQMNSLKPEDTAVYYCAPDFSFLGNASARLDYDYWGQGTQVTGSS | low polyreactivity |
| QVQLVESGGGLVQAGGSLRLSCAASGITFRVNAMGWYRQAPGKERELVAAISQIGGSTYYADSVKGRFTISRDNAKNTVYLQMNSLKPEDTAVYYCAARRRWYNYNYWGQGTQVTVSS | high polyreactivity |
| QVQLVDSGGGLVQAGGSLRLSCAASGFIDALDAMGWYRQAPGKERELVAAISYSGGSTYYADSVKGRFTISRDNAKNTVYLQMNSLKPEDTAVYYCAVYYRSAFYYWGQGTQVTVSS | high polyreactivity |
| QVQLVESGGGLVQAGGSLRLSCAASGFIFRHYTMGWYRQAPGKERELVAAISSGGSTYYADSVKGRFTISRDNEKNTVYLQMNSLKPEDTAVYYCAARSRIYGLLFYYWGLGTQVTVSS | high polyreactivity |
| HDQLVESGGGLVQAGGSLRLTCAASGFIFGAYTMGWYRQAPGKERELVAAISWSGDSTYYADSVKGRFTISRDNAKNTVYLQMNSLKPEDTAVYYCAAVWYWSGFDYWGQGTQVTVSS | high polyreactivity |
| QVQLVESGGGLVQAGGSLRLSCAASGSTFWYYAMGWYRQAPGKERELDADITYSGVSTYYADSVKGRFTISRDNAKNTVYLQMNSLKPEDTAVYYCYADWGSVNGYAGYYYWGQGTQVTVSS | low polyreactivity |
| QVQLVETGGGLVQAGGTLRLSCAASGRIFRRYAMVWYRQAPGKEREFVAAITDGSTYYADSVKGRFTISRDNAKNTVYLQMNSLNPEDPAVYYCATQFGWSYSRRFYYWGQGTQVTVSS | high polyreactivity |
| QVQLVESGGGLVQAGGSLRLSCAASGSTFGANAMGWYRQAPGKEREFVAAISRSGVRTYYADTVKGRFTMSRDNAKITVYFQMNSLKPEDTAVYYCAADGYWWTYTRYDYWGQGTQVTVSS | low polyreactivity |
| QVQLVESGGGLVQAGGSLRLSCAASGSIFTYNTMGWYRQAPGKERELVAAISSGGRTYYADSVKGRFTISRDNAKNTVYLQMNSLKPEDTAVYYCAARYYFWGQGTQVTVSS | high polyreactivity |
| QVQLVESGGGLVQAGGSLRLICAASGSIFAYYAMGWYRQAPGKERELVGTNYADSVKGRFTISRDNAKNTVYLQMNSLKPEDTAVYYCAASSRRYLWGFDYWGQGTQVTVSS | low polyreactivity |
| QVQLVESGGGLVQAGGSLRLSCAASGFTFTKNTMGWYRQAPGKERELVAAITKSGGRTYYADSVKGRFTISRDNAKNTVYLQMNSLKPEDTAVYYCAADYVRNNYPYGYWGQGTQVTVSS | high polyreactivity |
| QVHLVESGGGLVQAGGSLRLSCAASGLTFAYYAMGWYRQAPGKERELVAAITDSAGNTYYADSVKGRFTISRDNAKNTVYLQMNSLKQEDTAVYYCAAAWPSTGLLYVLGYSGYGYWGQGTQVTVSS | low polyreactivity |
| QVQLVESGVGLVQAGGSLSLSCAASGIIFYWYAMGWYRQAPGKEREMVATITSTGGSTNYADSVKGRFTISRDNAKNSVYVQMNSLKPEYTAVYYCSTSGPQYYSRNFDYWGQGTQVTVSS | low polyreactivity |
| QVQLVESGGGLVQAGGSLRLSCAASGSIFNLNAMGWYRQAPGKERELVASISSDGSTYYADSVKGRFTISRDNAKNTVYLQMNSLKPEDTAVYYCNADSQWAFKQLSFDYWGQGTQVTVSS | low polyreactivity |
| QVQLVESGGGLVQAGGSLRLSCAASGYAKGWYRQAPGKESELDAAITSNGGRTYYADSVKGRFTISRDNAKNTVYIQMNSLKPEDTAVYYCATRSGPHYKTRWTYDLGYWGQGSQVTVSS | low polyreactivity |
| QVQLVESGGGLVQAGGSLRLSCAAYGNTFEGYAKGWYRQAPGKERELVAAISGSSGSTYYADSVKGRFTISRDNAKNTVYLQMNSLKPEDTAVYYCAAYSYYPPYDYWGQGTQVTVSS | high polyreactivity |
| QVQLVESGGGLVQAGGSLRLSCAASGSTFVFYAMGWYRQAPGKERELVAAISRSGGSTYYADSVKGRFTISRDNAKNTVYLQMNSLKPEDTAVYYCNAVRFYRYGWGQGTQVTVSS | high polyreactivity |
| QVQLVESGGGLVQAGGSLRLSCAASGRTFFGYAMGWYRQAPGKERELVAAISRGGGRTYYADSVKGRFTISRDNAKNTVYLQMNSLKPEDTAVYYCNAVTFSFYLYDWGQGTQVTVSS | high polyreactivity |
| QVHLVESGGGLVQAGGSLRLSCASTGIIFLRNAMGWYRQAHGKERELVAAISYRGGSTYYADSVKGRFTISRDNANNTVYLQMNSLKPEDTAVYYCNDLYTSLYDYWGQGTQVTVSS | high polyreactivity |
| QVQLVESGGGLVQAGGSLRLSCAASGSIFAEYAMGWYRQAPGKERELVAAINGGGSTYYADSVKGRFTISRDNAKNTVYLEMNSLKPEDTAVYYCAAEKYTSWYSFWGYLYDYWGQGTQVTVSS | high polyreactivity |
| QVQLVESGGGLVQAGGSLRLSCAASGSTFPGNAMGGSRQAAGKERELVASISGGGDSTYYADSVKGRFTISRDNAKNTVYLQMNSRKPEDTAVYYCAADYRQEPGYTGYYYWGQGTQVTVSS | low polyreactivity |
| QVQLVESGGGLVQAGGSLRLSCAASGFTFARYTRVWSRQAPGKERELVAAISKRGTSTYYADSVKGRFTISRDNAQNTVYLQMNSLKAEDTAVYYCAATPGTGYGDYDYWGQGTQVTVSS | high polyreactivity |

| Sequence | polyreactivity (PSR sort gate) |
| --- | --- |
| QVQLVESGGGLVQAGGSLRLSCAASGFTFSWYAMGWYRQAPGKERELVAAINADGGTTYYADSVKGRFTISRDNAKNTVYLQMNRLKPEDTAVYYCAAELSVDKYDYWGQGTQVTVSS | low polyreactivity |
| QVQLVESGGGLVQAGGSLRLSCAASGRIFPYYGMGWYRHAPGKERELVAAITWDSGSTYYADSVKGRFTISRDNAKNTVYLQMNSLKPEDTAVYYCAAPISFYSPAEYYYWGQGTQVTVSS | low polyreactivity |
| QVQLVESGGGLVQAGGSLRLSCAASGFTFYRYAMGWYRPAPGKERELVAAISSTGDRTYYADSVKGRFTISRDNAKNTVYLQMNSLKPEDTAVYYCAAPYQNQVEFNYWGQGTQVTVSS | high polyreactivity |
| QVQLVESGGGLVQAGGSLRLSCAASGSIFVQNRMGWYRQAPGKERELVAAITFSGVDTYYADSVKGRFTISRDNAKNTVYLQMNSLKPEDTAVYYCAARVQHYLSTDDYWGQGTQVTVSS | low polyreactivity |
| LVQLQESAGGLVQAGGSLRLSCAASGSISVTRAMCWYRQAPGNERELVASTTGGSNNADSVNGRFTISRDNAKNTVYLQMNSLKPEDTAVYYCAAAVGVGRSGGTYDYWGQGTQVTVSS | low polyreactivity |
| QVQLVESGGGLVQAGGSLRLSCAASGITFDKYAMGWYRQAPGKERELVAAISWGGGRTYYADSVKGRFTISRDNAKNTVYLQMNSLKPEDTAVYYCATSHGLYTRWYDYWGQGTQVTVSS | high polyreactivity |
| QVQLVESGGGLVQAGGSLRLSCAASGSIFRRYAMGWYRQAPGKERELVAAITGTGGRTYYADSVKGRFTMSRDNAKNTVYLQMNSLKPEDTAVYYCNKLVTYYRADPEYDYWGQGTHVTVSS | high polyreactivity |
| QVQLVESGGGKVQAGGSLRLSCAASGYTFKYYTMGWYRQAPGKERELLAAITRSGGSTYYADSVKGRFTISRDTAKNTVYLQMNSLKPEDTAFYYCAARASYKQPVSFDYWGQGTQVTVSS | high polyreactivity |
| QVQLVESGGGLVQAGGSLRLSCAASGSIFRYNAMGWYRQAPGKERELVAGITWGGGRTYYADSVKGRFTISRDNAKNTVYLQMNSLKPEDTAVYYCNAVRKYKGDSSFDYWGQGTQVTVSS | high polyreactivity |
| QVQLVESGGGLVQAGGSLRLSCAASGRTFGFNAMGWSRPAPGKERELVAVITRGGSTYADSVKGRFTISRDNAKNTVYLQMNSLKPEDTAVYYCAAYRYGFKTWMDYWGQGTQVTVSS | high polyreactivity |
| QVQLVESGGGLVQAGGSLRLSCAASGRIFTHNAMGWYRQAPGKERELVAAITSGGRTTYADSVKGRFTISRDNAKNTVYLQMNSLKPEDTAVYYCNADTGLGSLDFYNRDYWGHGTQVTVSS | low polyreactivity |
| QVQLVESGGGLVQAGGSLRLSCAASGSIFPYYDMGWYRQAPGKERELVAAITSSGSTFYADSVKGRFTISRDNAKNTVYLQMNSLKPEVTAVYSCNTRDIRVRPYDYWGQGTQVTVSS | low polyreactivity |
| QVQLVESGGGLVQAGGSLRLSCAASGLTFRWYAMGWYRQAPGKERELVAAISSTGRTNYADSVKGRFTISRDNAKNTVYLQMNSLKPEDTAVYYCNKTQEFVHKYELDYWGQGTQVTVSS | low polyreactivity |
| QVQLVESGGGLVQAGGSLRLSWAASGRTLKYNAMGWYRQAHGKERELVSAISYSGSSTYYADSVKGRFTISRDNAKNTVYLQMNSLKPEDTAVYYCNTARPTAAYDYWGQGTQVTVSS | low polyreactivity |
| QDQLVESGGGLVQAGGSLRLSCAASGSSFDINAMGGYRQAPGKERELVAAISWIGGSTYYADSVKGRFTISRDNAKNTVYLKMNSLKPEDTAVYYCAKKELRQYDMEYWGQGTQVTVSS | low polyreactivity |
| QVQLVESGGGLVQAGGSLRLSCAASGSIFPLYDMGWYRQAPGKERELVAGITGSGGSSYYADSVKGRFTISRDNAKNTVYLQMNSLKPEDTAVYYCAADYSLYGWWFRNDYWGQGTQVTVSS | low polyreactivity |
| QVQLVESGGGLVQAGGSLRLSCAASGIIFRWYAMGWYRQAPGKERELVAAISRSGSSTYYADSVKGRFTISRDNAKNTVYLQMNSLKPEDTAVYYCNAEYQAPTEKGRYYYPWPYEYWGQGTQVTVSS | high polyreactivity |
| QVQLVESGGGLVQAGGSLRLSCAASGIIFSVYAMGWYRQAPGKERELVAAITRSGSRTYYADSVKGRFTISRDNAKNTVYLQMNSLKPEDTAVYYCNAVPRVTRPSAVEEYDYWGQGTQVTVSS | high polyreactivity |
| QVQLVESGGGLVQAGGSLRLSCAASGFIFRRYAMGWYRQAPGKERELVAAITWNGGTTYYADSVKGRFTISRDYAKNTVYLQMNRLKPEDTAVYYCAAASRHTGSYRFYYWGQGTQVTVSS | high polyreactivity |
| QVQLVESGGGLVQAGGSLRLSCAASGSTFSYNAMGWYRQAPGKERELVAAITSSGSSTYYADSVKGRFTISRYNAKNTVYLQMNSMKPEDTAVYYCNAEVLFVAGQVQRNSGDYWGQGTEVTVSS | low polyreactivity |
| QVQLVESGGGLVQAGGSLRLSCAASGRIFVPYLMGWYRQAPGKERELVASISDSDTSTYYADSVKGRFTISRDNAKNTVYLQMNCLKPEDTAVYYCNVDYWGQGTQVTVSS | low polyreactivity |
